Experimental data: PMC6391877

How the values were obtained:
[1] = biological target: 4 domain CD4 (residues 1-388) with a C-terminal twin strep tag (human) (UniProt P01730); assay: SEC
[2] = biological target: intact human C-C chemokine receptor type 5 (human) (UniProt P51681); assay: SEC
Chain of UniProt P51681 (P51681 whole entry): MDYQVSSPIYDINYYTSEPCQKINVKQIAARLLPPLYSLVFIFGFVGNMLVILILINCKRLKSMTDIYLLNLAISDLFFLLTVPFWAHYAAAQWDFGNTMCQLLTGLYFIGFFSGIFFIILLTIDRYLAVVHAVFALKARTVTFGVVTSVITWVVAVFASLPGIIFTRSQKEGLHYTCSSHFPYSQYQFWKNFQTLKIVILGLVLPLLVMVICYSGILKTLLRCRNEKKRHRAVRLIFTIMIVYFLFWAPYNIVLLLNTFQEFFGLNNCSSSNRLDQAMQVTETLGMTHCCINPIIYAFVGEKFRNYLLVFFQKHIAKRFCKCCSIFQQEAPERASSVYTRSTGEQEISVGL

| stoichiometry N [2] | Substance | stoichiometry N [1] |
| --- | --- | --- |
| – | HIV-1 gp120 (residues 1-507) from the isolate 92BR020 with a C-terminal 6xhistidine tag (natural protein) | 1 |
| 1 | preformed CD4-gp120 complex (from UniProt P01730 26-388) | – |
